# B1: zebrafish Impdh1a (544) (enzyme)
# chain: not shown
# Target: the molecule itself
# Assay: negative stain electron microscopy
protein,measurement,value
B1,binding result,binds

# From publication PMC8688572 (The Journal of Biological Chemistry, 2021)
